Results published in US20200399314A1 (MEDIKINE, published 2020).
Bridge positions count the residues as written; N and C are the ends. Ends that are not written are not given here.

T1: human IL-2Rα subunit (human, UniProt P01589 22-213, limits assumed)
T1 construct: also called CD25
T1 sequence (looked up): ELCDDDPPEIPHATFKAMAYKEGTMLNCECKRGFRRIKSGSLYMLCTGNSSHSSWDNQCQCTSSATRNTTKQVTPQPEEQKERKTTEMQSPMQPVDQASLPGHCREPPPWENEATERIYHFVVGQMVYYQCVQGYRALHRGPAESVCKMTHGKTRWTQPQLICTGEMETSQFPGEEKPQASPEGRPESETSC

B1: SEQ ID NO 127 (peptide)
peptide: ETPCDLHPGHWSCSMV
B2: SEQ ID NO 132 (peptide)
peptide: KLWCQNNPGNSICDMY
B3: SEQ ID NO 113 (peptide)
peptide: EWECLFLPGRKGCTLF
B4: SEQ ID NO 116 (peptide)
peptide: EWECWFLPGRRGCTLI
B5: SEQ ID NO 109 (peptide)
peptide: NWECIFSPGRRGCSLT
B6: SEQ ID NO 118 (peptide)
peptide: DWECLFLPGRRGCTLF
modifications: disulfide 4-13 (inferred)
B7: SEQ ID NO 110 (peptide)
peptide: DWECLFLPGRRGCLLF
B8: SEQ ID NO 114 (peptide)
peptide: DWECIFLPGRRGCTLF
modifications: disulfide 4-13 (inferred)
B9: SEQ ID NO 121 (peptide)
peptide: NWECIFSPGRRGCSLT
B10: SEQ ID NO 9 (peptide)
peptide: FIPWDEYFKQVL
B11: SEQ ID NO 119 (peptide)
peptide: YWECVFMPGHRGCSLI
B12: SEQ ID NO 111 (peptide)
peptide: EWECLFMPGRRGCLLM
modifications: disulfide 4-13 (inferred)
B13: SEQ ID NO 131 (peptide)
peptide: GSRCYWDPGREVCIFK
B14: SEQ ID NO 117 (peptide)
peptide: DWHCLFLPGHRGCTLF
modifications: disulfide 4-13 (inferred)
B15: SEQ ID NO 129 (peptide)
peptide: GLRCYFDPGSQICTFL
B16: SEQ ID NO 115 (peptide)
peptide: VYECLFMPGRKGCFGM
B17: SEQ ID NO 112 (peptide)
peptide: AWECLFLPGHRGCSLF
B18: SEQ ID NO 130 (peptide)
peptide: GQRCTYDPGQDACVFS
B19: SEQ ID NO 128 (peptide)
peptide: FFLCDDFPGLPRCEWI
B20: SEQ ID NO 120 (peptide)
peptide: TWDCLFLPGRRGCTLM
B21: SEQ ID NO 10 (peptide)
peptide: FVPWDVYFSQIL
B22: SEQ ID NO 134 (peptide)
peptide: RLFCLMNPGPPDCWIY
B23: SEQ ID NO 126 (peptide)
peptide: AGWCKLNPGTQVCSFY
modifications: disulfide 4-13 (inferred)
B24: SEQ ID NO 133 (peptide)
peptide: KSWCFDHPGYPICQFY

Target: T1, human IL-2Rα subunit

| IC50 [µM] | Binder |
| --- | --- |
| < 100 | B1 |
| < 100 | B2 |
| < 100 | B3 |
| < 100 | B4 |
| < 100 | B5 |
| < 100 | B6 |
| < 100 | B7 |
| < 100 | B8 |
| < 100 | B9 |
| < 100 | B10 |
| < 100 | B11 |
| < 100 | B12 |
| < 100 | B13 |
| < 100 | B14 |
| < 100 | B15 |
| < 100 | B16 |
| < 100 | B17 |
| < 100 | B18 |
| < 100 | B19 |
| < 100 | B20 |
| < 100 | B21 |
| < 100 | B22 |
| < 100 | B23 |
| < 100 | B24 |
